# Assay: soluble on expression in E. coli; label from the status in PepcDB or PDB records
row,Sequence,soluble on expression in E. coli
1,MAGGPSALTLIARTSATGAQPLSLRARFPRTRPPMKKIPLAAADPDRLDTWVKYREGLCGECNATCCTLPVEVRIDDLIRMRLVDEFEREEPAKRIAKRLEKDGVIEHFNHKREIFTLTRMANGDCLYLDRKTRLCTIYARRPDTCRNHPRIGPRPGYCAYRPRLEHHHHHH,not soluble
2,MEQEQRGMAALLSKFRIDYSDVYVIADIGKKPRQETMNTWQSVIDPFIAQDGSCPIGMTTKSELSAQRDKTYRQLRAGELLNEHSINADLIVMTLPVPRKGMVSSSLYMSWLEVMTRNLPPVLLVRGNQQSVNTSSSSTASSPHHLIIPALAINPHLKVFPSHISLKCFFFFRFLLKAYAAAVHPPSRFLCYMKKVTDSIFVSLMNNSRLYCLL,not soluble
3,MGSDKIHHHHHHMGYRLTRENLNTLFHKLKEDYLIYAPKRLIGKGAFSDTDRVRYDKINNVEEIEFDVKSDFSFKEILLPISETLFFFTEDSVKEAEGPKKGAIIFLRSCDINAVKRLDQIYLKNGFEDHYYKRIREKVKFVLMPCKTSFENCFCVSMGTNQADMYDASVELREEHFYIDNKEEKWKEFLKEVSLEELEVKPSFVMENKTKVKVPEGITTKIFKSKMWDEYDSRCINCGRCNFVCPTCTCFSMQDIFYTDNGKAGERRRVWASCMVDGFTNVAGGGSYRSKNGQRMRFKVMHKVYDYKKRNGYHMCVGCGRCDDICPEYISFSNCINKLKGAIKEVEDNE,not soluble
4,MDAVDRGVYFDEDFHVRILDVDKYNASKSLQDNTNVFINNIQNMQGLVDKYVSAIDQQVERLEAEKLKAIGLRNRVAALSEERKRKQKEQERMLAEKQEELERLQMEEQSLIKVKGEQELMIQKLSDSSSGAAYV,not soluble
5,MDARPVHPAFQVFTDALRQRFGEALDAVVLYGSCLHTSDLTEGIADFYVLVSDYRLAYSGRLLAGLNAWLPPNVFYLEVPAAAGVMRAKYAVISTADFERGARQWFHPYIWARFAQPARLLYARDDQTGKRVHTAQASAVLKFISTTLPVLESGPSDLEMIWASGLMLTYAAELRAEREARARHLVRIDPEIYSRLTAAAMPALIPLLSLQADGRYHIGPITPLKRLSARIHWRLRRWQGRVLSVLRLSKATMTFRDCLDYAAWKIERHTGIKVEITPMLRRHPILWGYKVMWQLLRRGVLRLEHHHHHH,soluble
6,MAQSSAQLLFDESGQPFIVMREQENQKRITGVEAVKSHILAARAVANTLRTSLGPRGLDKMLVSPDGDVTITNDGATIMEKMDVQHHVAKLMVELSKSQDHEIGDGTTGVVVLAGALLEEAEKLIDRGIHPIKIADGFDLACKKALETLDSISDKFPVENRERLVETAQTSLGSKIVNRSLRQFAEIAVDAVLSVADIESKDVNFEMIKMEGKVGGRLEDTILVKGIVIDKTMSHPQMPKELKNAKVAILTCPFEPPKPKTKHKLDITSTEDFKALRDYERETFETMIRQVKESGATLAICQWGFDDEANHLLQANDLPAVRWVGGPEIELLAIATNARIVPRFSELSKEKLGTAGLVREITFGAAKDRMLSIEQCPNNKAVTIFVRGGNKMIIDEAKRALHDALCVIRNLVRDSRIVYGGGSAELAAAIQVAKEADRIDGIEQYAFRAFADALESIPMALAENSGLAPIDALSDLKAKQIETGKSSLGIDAVFAGTNDMKEQKVIETLLSKREQISLATQVVRMILKIDDVRVPDDERMGY,not soluble
7,MTDNQSKSLELILTDSDDAHMLLGTHDKHIKFLEENTHVTINSRGEVIQLIGESSEVELVASVLRALQTLIQRGIKVHTPDVVSALKMAKAGNLEAFIAMYEEEIMKDHHGRAIRIKNVGQKKYIDAVKTHDVIFGVGPAGTGKTFLAVVMAVAALKKGEVQKIILTRPAVEAGESLGFLPGDLKEKVDPYLRPVYDALYQIFGMDHTNRLMERGVIEIAPLAYMRGRTLDDAFVILDEAQNTTVAQMKMFLTRLGFSSKMIVNGDTSQIDLPRGVTSGLVNAERTLKDIEKIAFVNFEASDVVRHPVVAQIIQAYEKEQQKHS,not soluble
8,MIEMKYILARATDEEIQKRGECGGAVTAIFKYMLDREIVDGVLTLERGDDIYDGIPVLLEDSDEIVSTCGSLHCAPTMFGDLISRYLNDMRLAVAVKPCDAMAIKELEKRHQIDPQRVYMIGLNCGGTLSPVSAREMIETFYEIDPDDVVREEIDKGKFIVELKDGSHKEISIDYLEEEGFGRRENCQRCELMVPRNADIACGNWGAEEGWTFIEVNTDRGEEIIEGARREGYLEVKEPPMKMIEIREKIENAMIKMARKFQDKYLEDEYPSLDDWDEYWKRCINCFACRDLCPICFCRECELEKDYLLESDEKAPDPLTFQGVRLSHMGFSCINCGQCEDVCPMDIPLARIYHRIQRKYRDRTGFTAGVSEELPPMYSGEKDLEHHHHHH,soluble
9,MKKILALLVIAPLLVSCSGNKNQVENEVFVKDTNGFEILMGQFAHNIENIWGLKEVLIAGPKDYVKYTDQYQTRSHINFDAGTITIETIATTNPAAHLRQAIITTLLMGDDPGSIDLYSDVNDIQISKEPFLYGQVLDNNGEPIRWEWRAAHFADYLLQNKMQTRTSGLHVISFVTIQLVPNHLDKRAHKYLPLVRKSAARYGVEESLILAIMQTESSFNPYAVSRSDALGLMQVVQHTAGKDVFKLKGKSGQPSRSYLFDPENNIDAGTAYLSILQNTYLGGIQNATSRRYAVITSYNGGAGSVLRVFHSDKNKAVGIINTMSPGDVFQTLTTKHPSGESRRYLVKVNSAQKNYRRY,not soluble
10,MGSDKIHHHHHHLYNNSANTQFTGKSIHFLPSCHSTNTEASLLIRAQKAVNGLIVITNEQTAGRGQQGNSWLSKADSNLTFSVIFFPEKLHLKDSFYLNIVSSLSIAKTVDELVPENIVKVKWPNDILLNNKKVCGILIENMLRGEHIHAVVMGIGVNVNHSDGNLPFAGAMSSEAAKTFHLQEVFTRICENLEPYYLMLEQGLFAELDALYLQNLYGLNEKKHFSDSEGNFTGTIQAVLPGGLLQVEKESGVIKQYTFKEVSLVK,not soluble
11,MGSDKIHHHHHHMLVYIGNGHYCYSNSTAMFLSSIGENVSPQLVEILTGVGLGAMIEYEKNLYFSMRDPDDGINYALNILGFTAEEHQQASDLDDPFPLLKQQIKQNPVILGPLDMGELTYHPNHKNLNGSDHYVLGYQMDNENIYVQDPAGFPFVPLSLDQFKKAWMAERIPYRKGINKYWSTAKKVVTLDNNEIYERAIDYFKRTYRKFEKVDIGLIGREAICFYADQLLNAPITADTIRHTTFFLFQLSARRANDYAMYFKDRHSHLSVLKTEQAKVFGICHSMSVNKDWKGISEKLMKLADLEDNFRLELLKVGY,not soluble
12,MGSDKIHHHHHHMKTPWLVNGKLANLYLLYGTERHLLEEWEREIVKAALPDGERFDYMKIDLNDQPLDAVLDEAETVPFLSDYRVVIAKPATFLTGAKDKKTHNVERLAEYIVQPADYAVVVLIVEAEKLDERKTIVKRLKDRAVILEAKKPTTEELFRFVMDAVNDKGYRMERPAIERLIFLTGEMWATLTRELDKLMLYAGDHPTIELEDVNLLVPRTLEDNVFQLTDYLMKRQLEPAIRLIRDLEKQGQEVLALLGLMARQYRMMLLSKRLAEQGYGERQIASKVGAHPYAIKLALQAGKRFTFAQLEQALVAITTTDEGMKTGRGDKRILFDALIVRLATL,not soluble
13,LRVFSSDGKLIAEFGEMRRTPIRFAEIPPNFINALLSAEDDNFANHYGVDPSSLMRAATQLVKSGHIQSGGSTITMQVAKNFFLTSERSFSRKTTEILLALQIERQLTKDEILELYVNKIYLGNRAYGIEAAAQVYYGKSIRDVSLAQMAMIAGLPKAPSRFNPLANA,not soluble
14,MGHHHHHHSHMGNCCWTQCFGLLRKEAGRLQRVGGGGGSKYFRTCSRGEHLTIEFENLVESDEGESPGSSHRPLTEEEIVDLRERHYDSIAEKQKDLDKKIQKEQERQRIVQQYHPSNNGEYQSSGPEDDFESCLRNMKSQYEVFRSSRLSSDATVLTPNTESSCDLMTKTKSTSGNDDSTSLDLEWEDEEGMNRMLPMRERSKTEEDILRAALKYSNKETGSNPTSASDDSNGLEWENDFVSAEMDDNGNSEYSGFVNPVLELSDSGIRHSDTDQQTR,soluble
15,MSSTAGGEVSINSGDLLLGTLSTSITKLEQQIRATQLSQKKLNSDCETMAEYLRDLSEYKQPVDLLPYVGKLNDSTIRVNNTHQKLDDLLERLTKLQRQIARETYKKKNSIKEQEPPVQPEN,not soluble
16,MTTRDLTAAYFQQTISANSNVLVYFWAPLCAPCDLFTPTYEASSRKHFDVVHGKVNIETEKDLASIAGVKLLPTLMAFKKGKLVFKQAGIANPAIMDNLVQQLRAYTFKSPAGEGIGPGTKTSS,soluble
17,MGSDKIHHHHHHMQVGTIFGHKNSEGTLVSSAAIIPYESKLASIGMVIVSSQCRGLGLGREVTEACIKATLEDTTLMLIATDEGRPLYERLGFAAVERIHKHLCDDYKEPESIPSMDVTIEELRSNDFRQLVQLDEGAMGVRRSRFLKQRTTQANQSLVAKDKAGNVIGYGLSILGPIHLIIGPIVAPNHEIACLILDRLACQHKGKLRMDVPSGHHTFLQHLQRRGFTEVNTPPVMAKQSAYEPRRNGTLFAIAAQVFG,not soluble
18,MSSQSSSADGKVTLKFFHRWPKEPEKSYFEEVVKEFEKDHPDIDIQIEAVLNDSYKDKIKVMLGTTSPPDIYFSWSDEFAFKFIRGNKALDLSSYYKNDTDWSSQLVQSQITPFTYENKQYGVPWQMDAKSFFYNKDIFQKLNLDPPKTWDELIDVSKKLKEHGYTPISFGTKATWTISHYIGTLNQRMVDEKTREKDYNAKTGEFTDEGYVKALEKLQELMPYFNKHVNSVDHEYVRQQFKSGKSAMIYAETAEIKLVEPVNLGMFPFPEISGQKGSSEALTGAPEGFMISSRTKHPKEAMEFLQFLTSKRMGEKLVKDVGKYSAVQGTATEENATAIQREAVQHIVDAKSMVPWFDMDVDVEVADAYLTGVQQMLGGDMTPQQVMKAVQKAAKQVRASAELEHHHHHH,soluble
19,SLQKFKWSNIYCKEADCVRILLVADPQILGKTFDTHFYAGLANYDSDRYLAWYYEQAVEHVQPDVIIFLGDLMDEGTDSTEMHFEEYYTRFGAIFPTHPTARSIYIPGDNDIGGEGRQPLNPIAKRRFRQYFSERPAWVINDNLTIYNINRITLEMTLNDPRMVDSTGSDVSDRYLRIFVSHMPVLDVPSSFTYTAIHNLKPNVIFSAHLHVSQFARIHRSRLKTVQYKPLSQDKRTAYKVHSFDLSYHQDTQELLEIIVPTCSYRMSVPDIGYGYAAIDGTTLKYTVLWTTRRFYQLISYV,not soluble
20,MGSDKIHHHHHHMRASSHLPQLHGRLDLTFERRRGTTRLVASEQTPPLNVSRVLRTEEVDLATVYLVETSGGVVSGDSQTIAIYVGEGARVELIPQSATKVYPSRKQGESSTQQVWLRVDEGAAAFWKPESIIPFRKASFLQSTRFHLHSSSTFFYGDMLTPGRVHHNERFQYEQVDSLVEIYLDETLVVHDRVHLQPKDQLQTIGRLDGYSYYGAVWMHAPILKGAHLEQWMENGGQNDRFAYTCVAEGLIHVRWLSESSWRLRAALNDLYTAFRTFALKGE,not soluble
21,MTLKLIGAGFGRTGTWSTFAALNRLGLPCYHMQEVIMNKANKGHLDFWRKVANSPPGSQHDWNRVFANYTATVDNPGCCVWKELLAAYPDAKVLLTLHPRGAEAWYESTIDTIYFTENVWQFKILEWLTPFGWKFGDMSRKLIWGRTLDGVMNDRAKAVARYNTYVEQVKAAVPPHKLLVYKVTEGWAPLCDFLGLEHHHHHH,soluble
22,MGSDKIHHHHHHMTAYNNNAIYFKNIASGSKGNSTFIWDAHDLIVIDFGITMKKFKEAISELTLGGLNKSIFISHEHADHVSGIRSVKKVDGADVYTRPATAEAANIKAYEIDNEVVIGNFEILAFDVPHDAADPVAFTVKWKDLKISVVSDLGTVTENVISNIRDSDILAFESNHDVSMLKTGRYPASLKRRILSQHGHLSNEQSAEAISKAINESTEIVLTHLSQENNKPEIALNEVKSYLKNRDIKYKDVECADQYVGSSLKSLKT,not soluble
